B1: Ankyrin repeat and SOCS box protein 14, residues 532 to 572; numbered along this chain, A6NK59 (parent)
chain: RSLKHLCRLKIRKCMGRLHLRCPVFMSFLPLPNRLKAYVLY

± gives the uncertainty stated by the source.

Variants of B1 are the subject of the data set. As to the kind of experiment: abundance fitness (aPCA) (normalised: wild type 0, dead -1); higher = more abundant; growth selection in yeast, the domain comes from the species named. Particulars: Homo sapiens.
For the variant RSLKHLCRLKIRKCMGRLHLRCPVFMSFLPLPNREKAYVLY [L35E], the abundance fitness is -1.12 ± 0.26.
In the case of RSLKHLCRLKIRKCMGRLHLRCPVFMSFLPLPNRKKAYVLY [L35K], the abundance fitness was -1.29 ± 0.47.
On to RSLKHLCRLKIRKCMGRLHLRCPVFMSFLPLPNRVKAYVLY [L35V], for which the abundance fitness was -0.103 ± 0.048.
For RSLKHLCRLKIRKCMGRLHLRCPVFMSFLPLPNRNKAYVLY [L35N] the value was -0.729 ± 0.47; for RSLKHLCRLKIRKCMGRLHLRCPVFMSFLPLPNRHKAYVLY [L35H], -0.955 ± 0.35.
RSLKHLCRLKIRKCMGRLHLRCPVFMSFLPLPNRAKAYVLY [L35A]: the abundance fitness is -0.466 ± 0.058.
For RSLKHLCRLKIRKCMGRLHLRCPVFMSFLPLPNRDKAYVLY [L35D] the value was -1.24 ± 0.23; for RSLKHLCRLKIRKCMGRLHLRCPVFMSFLPLPNRCKAYVLY [L35C], -0.135 ± 0.21.
For RSLKHLCRLKIRKCMGRLHLRCPVFMSFLPLPNRIKAYVLY [L35I] the value was -0.18 ± 0.11.
For RSLKHLCRLKIRKCMGRLHLRCPVFMSFLPLPNRGKAYVLY [L35G] the value was -1.13 ± 0.094; for RSLKHLCRLKIRKCMGRLHLRCPVFMSFLPLPNRPKAYVLY [L35P], -0.913 ± 0.19; for RSLKHLCRLKIRKCMGRLHLRCPVFMSFLPLPNRSKAYVLY [L35S], -0.66 ± 0.091.
As to RSLKHLCRLKIRKCMGRLHLRCPVFMSFLPLPNRTKAYVLY [L35T], the abundance fitness is -0.966 ± 0.17.
For RSLKHLCRLKIRKCMGRLHLRCPVFMSFLPLPNRRKAYVLY [L35R] the value was -1.28 ± 0.12; for RSLKHLCRLKIRKCMGRLHLRCPVFMSFLPIPNRLKAYVLY [L31I], -0.006 ± 0.072; for RSLKHLCRLKIRKCMGRLHLRCPVFMSFLPTPNRLKAYVLY [L31T], -0.439 ± 0.11.
For RSLKHLCRLKIRKCMGRLHLRCPVFMSFLPSPNRLKAYVLY [L31S] the value was -0.113 ± 0.06; for RSLKHLCRLKIRKCMGRLHLRCPVFMSFLPYPNRLKAYVLY [L31Y], -0.795 ± 0.14; for RSLKHLCRLKIRKCMGRLHLRCPVFMSFLPDPNRLKAYVLY [L31D], -0.256 ± 0.16.
Regarding RSLKHLCRLKIRKCMGRLHLRCPVFMSFLPAPNRLKAYVLY [L31A], the abundance fitness is -0.272 ± 0.054.
On to RSLKHLCRLKIRKCMGRLHLRCPVFMSFLPMPNRLKAYVLY [L31M], for which the abundance fitness was -0.301 ± 0.11.
For RSLKHLCRLKIRKCMGRLHLRCPVFMSFLPWPNRLKAYVLY [L31W] the value was -0.187 ± 0.049; for RSLKHLCRLKIRKCMGRLHLRCPVFMSFLPRPNRLKAYVLY [L31R], -0.338 ± 0.05.
For RSLKHLCRLKIRKCMGRLHLRCPVFMSFLPHPNRLKAYVLY [L31H] the value was -0.434 ± 0.23; for RSLKHLCRLKIRKCMGRLHLRCPVFMSFLPKPNRLKAYVLY [L31K], -0.529 ± 0.079; for RSLKHLCRLKIRKCMGRLHLRCPVFMSFLPPPNRLKAYVLY [L31P], -0.476 ± 0.46.
For RSLKHLCRLKIRKCMGRLHLRCPVFMSFLPEPNRLKAYVLY [L31E] the value was -0.846 ± 0.11; for RSLKHLCRLKIRKCMGRLHLRCPVFMSFLPVPNRLKAYVLY [L31V], -0.086 ± 0.048.
With RSLKHLCRLKIRKCMGRLHLRCPVFMSFLPGPNRLKAYVLY [L31G], the abundance fitness was -0.28 ± 0.052.
For RSLKHLCRLKIRKCMGRLHLRCPVFMSFLPQPNRLKAYVLY [L31Q] the value was -0.656 ± 0.11; for RSLKHLCRLKIRKCMGRLHLRCPVFMSFLPLMNRLKAYVLY [P32M], 0.212 ± 0.072; for RSLKHLCRLKIRKCMGRLHLRCPVFMSFLPLINRLKAYVLY [P32I], -0.013 ± 0.12.
For RSLKHLCRLKIRKCMGRLHLRCPVFMSFLPLKNRLKAYVLY [P32K] the value was -0.179 ± 0.07; for RSLKHLCRLKIRKCMGRLHLRCPVFMSFLPLCNRLKAYVLY [P32C], 0.239 ± 0.062; for RSLKHLCRLKIRKCMGRLHLRCPVFMSFLPLDNRLKAYVLY [P32D], -0.998 ± 0.29.
On to RSLKHLCRLKIRKCMGRLHLRCPVFMSFLPLGNRLKAYVLY [P32G], for which the abundance fitness was -0.223 ± 0.05.
For RSLKHLCRLKIRKCMGRLHLRCPVFMSFLPLQNRLKAYVLY [P32Q] the value was -0.587 ± 0.091; for RSLKHLCRLKIRKCMGRLHLRCPVFMSFLPLHNRLKAYVLY [P32H], -0.47 ± 0.17.
For RSLKHLCRLKIRKCMGRLHLRCPVFMSFLPLANRLKAYVLY [P32A] the value was 0.08 ± 0.048.
For RSLKHLCRLKIRKCMGRLHLRCPVFMSFLPLYNRLKAYVLY [P32Y] the value was 0.221 ± 0.14; for RSLKHLCRLKIRKCMGRLHLRCPVFMSFLPLSNRLKAYVLY [P32S], -0.363 ± 0.062; for RSLKHLCRLKIRKCMGRLHLRCPVFMSFLPLENRLKAYVLY [P32E], -1.07 ± 0.13.
Take RSLKHLCRLKIRKCMGRLHLRCPVFMSFLPLLNRLKAYVLY [P32L]: the abundance fitness was 0.403 ± 0.047.
For RSLKHLCRLKIRKCMGRLHLRCPVFMSFLPLFNRLKAYVLY [P32F] the value was 0.465 ± 0.062; for RSLKHLCRLKIRKCMGRLHLRCPVFMSFLPLWNRLKAYVLY [P32W], 0.552 ± 0.049.
For RSLKHLCRLKIRKCMGRLHLRCPVFMSFLPLRNRLKAYVLY [P32R], the abundance fitness was -0.452 ± 0.048.
For RSLKHLCRLKIRKCMGRLHLRCPVFMSFLPLPNHLKAYVLY [R34H] the value was -0.455 ± 0.32.
For RSLKHLCRLKIRKCMGRLHLRCPVFMSFLPLPNVLKAYVLY [R34V] the value was -0.447 ± 0.067.
For RSLKHLCRLKIRKCMGRLHLRCPVFMSFLPLPNLLKAYVLY [R34L] the value was -0.709 ± 0.095; for RSLKHLCRLKIRKCMGRLHLRCPVFMSFLPLPNTLKAYVLY [R34T], -0.203 ± 0.098; for RSLKHLCRLKIRKCMGRLHLRCPVFMSFLPLPNCLKAYVLY [R34C], -0.204 ± 0.056.
RSLKHLCRLKIRKCMGRLHLRCPVFMSFLPLPNGLKAYVLY [R34G]: the abundance fitness is -0.29 ± 0.046.
Consider RSLKHLCRLKIRKCMGRLHLRCPVFMSFLPLPNQLKAYVLY [R34Q], for which the abundance fitness was -0.44 ± 0.2.
For RSLKHLCRLKIRKCMGRLHLRCPVFMSFLPLPNSLKAYVLY [R34S], the abundance fitness was -0.218 ± 0.066.
For RSLKHLCRLKIRKCMGRLHLRCPVFMSFLPLPNKLKAYVLY [R34K] the value was -0.166 ± 0.094.
For RSLKHLCRLKIRKCMGRLHLRCPVFMSFLPLPNYLKAYVLY [R34Y] the value was -0.155 ± 0.26; for RSLKHLCRLKIRKCMGRLHLRCPVFMSFLPLPNALKAYVLY [R34A], -0.255 ± 0.048; for RSLKHLCRLKIRKCMGRLHLRCPVFMSFLPLPNMLKAYVLY [R34M], -0.714 ± 0.13.
With RSLKHLCRLKIRKCMGRLHLRCPVFMSFLPLPNWLKAYVLY [R34W], the abundance fitness is 0.022 ± 0.054.
Regarding RSLKHLCRLKIRKCMGRLHLRCPVFMSFLPLPNFLKAYVLY [R34F], the abundance fitness is -0.168 ± 0.12.
For RSLKHLCRLKIRKCMGRLHLRCPVFMSFLPLPNPLKAYVLY [R34P] the value was -0.582 ± 0.12.
For RSLKHLCRLKIRKCMGRLHLRCPVFMSFLPLPNELKAYVLY [R34E] the value was -0.054 ± 0.1.

For the origin of these results see the Human Domainome abundance scans (Beltran et al. 2025).
